The target in test [1] is human kallikrein (Haematologic Technologies) (human) (UniProt P03952). Put plainly: cell-based or functional assay.
Test [2] has the same target. In words: apparent Ki (K1*) calculated from the IC50 as K1*=IC50/(1+(S/KM)), assuming competitive inhibition; chromogenic substrate S2305 1.8 mM, kallikrein 1.25 nM.

human kallikrein (Haematologic Technologies) (human), sequence (P03952 20-638 limits assumed): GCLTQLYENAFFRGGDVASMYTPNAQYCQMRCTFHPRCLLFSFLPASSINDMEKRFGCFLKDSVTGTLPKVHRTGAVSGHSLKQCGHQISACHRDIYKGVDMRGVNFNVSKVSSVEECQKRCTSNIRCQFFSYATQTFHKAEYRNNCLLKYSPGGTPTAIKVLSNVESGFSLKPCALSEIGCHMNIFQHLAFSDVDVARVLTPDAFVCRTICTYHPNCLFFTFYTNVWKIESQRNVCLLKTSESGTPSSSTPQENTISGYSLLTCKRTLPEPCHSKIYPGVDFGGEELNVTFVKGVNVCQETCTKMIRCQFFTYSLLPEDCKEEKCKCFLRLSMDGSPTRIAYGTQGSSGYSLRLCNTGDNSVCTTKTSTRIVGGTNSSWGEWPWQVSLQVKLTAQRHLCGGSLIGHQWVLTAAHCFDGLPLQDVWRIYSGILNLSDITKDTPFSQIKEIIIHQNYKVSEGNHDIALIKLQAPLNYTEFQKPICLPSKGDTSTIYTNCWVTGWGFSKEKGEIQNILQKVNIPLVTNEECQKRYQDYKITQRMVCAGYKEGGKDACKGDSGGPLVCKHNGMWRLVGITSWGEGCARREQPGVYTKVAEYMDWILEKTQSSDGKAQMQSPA

In turn, “PRO256 polypeptide (from UniProt O43278 36-465)” registered an inhibition of kallikrein enzymatic activity toward chromogenic substrate S2305 (IC50) in test [1] of 104 nM. Besides, the Ki in test [2] is 37 nM.

These data come from patent US20020123091A1.
